Laboratory results as given in patent CN107773755A.

Experiments:
抗体BA03-A [1] = assay: binding ELISA on coated BA03-A, relative activity vs reference; formulations after 8 weeks at 2-8 C
抗体BA03-A [2] = assay: binding ELISA on coated BA03-A, relative activity vs reference; formulations after 4 weeks at 40 C
抗体BA03-A [3] = assay: binding ELISA on coated BA03-A, relative activity vs reference; formulation F8 after 8 weeks at 40 C
抗体BA03-A [4] = assay: binding ELISA on coated BA03-A, relative activity vs reference; formulation F3 after 8 weeks at 40 C
抗体BA03-A [5] = assay: binding ELISA on coated BA03-A, relative activity vs reference; formulation F7 after 8 weeks at 40 C
抗体BA03-A [6] = assay: binding ELISA on coated BA03-A, relative activity vs reference; formulations F1-F11 at T0

- 结合活性 (Binding elisa, % relative to the reference) (抗体BA03-A [1]): 93.3 to 111%
- 生物活性 (Binding elisa, % relative to the reference) (抗体BA03-A [2]): 47.3 to 102%
- 活性 (Binding elisa, % relative to the reference) (抗体BA03-A [3]): 91.7%
- 活性 (Binding elisa, % relative to the reference) (抗体BA03-A [4]): 89.7%
- 活性 (Binding elisa, % relative to the reference) (抗体BA03-A [5]): 55.2%
- 生物活性 (Binding elisa, % relative to the reference) (抗体BA03-A [6]): 97.1 to 105%
B1: 抗体BA03 (重组人源化抗表皮生长因子受体单克隆抗体) (antibody, V domains shown)
VH: QVQLQESGPGLVKPSETLSLTCTVSGFSLSNYDVHWVRQAPGKGLEWLGVIWSGGNTDYNTPFTSRLTISVDTSKNQFSLKLSSVTAADTAVYYCARALDYYDYEFAYWGQGTLVTVSS
VL: EIVLTQSPDFQSVTPKEKVTITCRASQSIGTNIHWYQQKPDQSPKLLIKYASESISGIPSRFSGSGSGTDFTLTINSLEAEDAATYYCQQNNEWPTSFGQGTKLEIK
